Results from patent publication US9976134B2, “Thermolysin variants” (Danisco US Inc., priority 2007, dated 2018).

Tests used:
[1] = Stability assay in 25% TIDE 2X detergent with DTPA (residual Abz-AGLA-Nba protease activity); format: physicochemical; conditions: 60 min at 32°C; variant residual AGLA activity divided by wild-type residual activity
Procedure: (§1) The stability of thermolysin and variants thereof was measured after incubation under defined conditions in the presence of 25% TIDE® 2× detergent. The initial and residual activity was determined.
(§2) MTPs were obtained from Costar (type 9017) and from Greiner (black plate, type 655076). Test Method Unstressed Conditions:
(§3) First, 20 μl thermolysin containing culture supernatant was diluted with 180 μl MES assay buffer. Then, 20 μl diluted supernatant was diluted further with 180 μl MES assay buffer. Subsequently 10 μl of this dilution was transferred into 190 μl AGLA-substrate solution in a pre-warmed plate (Greiner 655076) at 25° C. Any air bubbles present were blown away and the plate was measured according to the AGLA protease assay protocol described below.
(§4) First, 20 μl of culture supernatant was diluted with 180 μl 27.5% TIDE®+detergent solution and placed in the iEMS shaker. The plate covered with a plate seal was incubated for a total of 60 minutes at 32° C. at 900 rpm. In addition, 20 μl of culture supernatant was diluted with 180 μl 27.5% TIDE®−solution and placed in the iEMS shaker. This plate covered with a plate seal was incubated for a total of 180 minutes at 50° C. at 900 rpm.
(§5) Subsequently after the respective incubations, 20 μl of either of these solutions were diluted with 180 μl MES assay buffer and 10 μl of this dilution were diluted with 190 μl AGLA-substrate solution in a pre-warmed plate (Greiner 655076) at 25° C.
(§6) Fluorescence measurements were taken at excitation of 350 nm and emission of 420 nm. The spectrofluorometer software calculated the reaction rates (=slope) of the increase in fluorescence for each well to a linearly regressed line of (milli-) RFU/min. The ratio of the residual and initial AGLA activity was used to express the 25% TIDE® 2× stability as follows: Percentage of residual activity=[slope of stressed]*100/[slope of unstressed]
(§7) For each sample (thermolysin and variants thereof) the performance index was calculated by dividing the residual activity of the variant by the residual activity of thermolysin. The performance index compared the stability of the variant and the standard thermolysin enzyme (e.g., wild type or parental enzyme), determined under the same conditions.
(§8) In these experiments, the liberation of Abz-AG by protease cleavage of Abz-AGLA-Nba was monitored by fluorescence spectrometry (Ex. 350/Em. 420). The rate of appearance of Abz-AG was a measure of proteolytic activity.
(§9) The Abz-AGLA-Nba assay solution was prepared by adding 1 ml of the Abz-AGLA-Nba stock to 19 ml MES substrate buffer and mixed well for at least 2 minutes. Subsequently the thermolysin or variants thereof containing culture supernatants were diluted with MES assay buffer to a concentration of 1-6 μg protein per ml.
(§10) The assay was performed by adding 10 μl of diluted protease solution to each well, followed by the addition of 190 μl Abz-AGLA-Nba assay solution that was pre-equilibrated for at least 15 minutes at 25° C. The solutions were vigorously mixed, and the liberation of Abz-AG by protease cleavage of Abz-AGLA-Nba was monitored by fluorescence spectrometry at 25° C. in kinetic mode with excitation set at 350 nm and emission set at 420 nm. The rate of appearance of Abz-AG was a measure of proteolytic activity in the samples. The protease activity was expressed as RFU (relative fluorescence units·min^−1).
(§11) As described in Example 1, the stability of thermolysin variants was measured by determining the AGLA activity before and after incubation in the presence of TIDE® 2× heavy duty liquid (HDL) detergent at an elevated temperature. The tables contain the relative stability values compared to wild-type thermolysin, which is the quotient of the variant residual activity divided by the wild-type residual activity. A value greater than one indicates higher stability in the presence of detergent. […]

[2] = Stability assay in 25% TIDE 2X detergent without DTPA (residual Abz-AGLA-Nba protease activity); format: physicochemical; conditions: 180 min at 50°C; variant residual AGLA activity divided by wild-type residual activity
Procedure: as §1, §2, §3, §4, §5, §6, §7, §8, §9, §10, §11

Molecule	PI (relative stability), 25% TIDE 2X with DTPA [1]	PI (relative stability), 25% TIDE 2X without DTPA [2]
A056C: single-substitution thermolysin variant (SEQ ID NO:3 numbering) (protein, listed as Geobacillus caldoproteolyticus) ITGTSTVGVGRGVLGDQKNINTTYSTYYYLQDNTRGNGIFTYDAKYRTTLPGSLWCDADNQFFASYDAPAVDAHYYAGVTYDYYKNVHNRLSYDGNNAAIRSSVHYSQGYNNAFWNGSQMVYGDGDGQTFIPLSGGIDVVAHELTHAVTDYTAGLIYQNESGAINEAISDIFGTLVEFYANKNPDWEIGEDVYTPGISGDSLRSMSDPAKYGDPDHYSKRYTGTQDNGGVHINSGIINKAAYLISQGGTHYGVSVVGIGRDKLGKIFYRALTQYLTPTSNFSQLRAAAVQSATDLYGSTSQEVASVKQAFDAVGVK	1.01	1.19
T049D: single-substitution thermolysin variant (SEQ ID NO:3 numbering) (protein, listed as Geobacillus caldoproteolyticus) ITGTSTVGVGRGVLGDQKNINTTYSTYYYLQDNTRGNGIFTYDAKYRTDLPGSLWADADNQFFASYDAPAVDAHYYAGVTYDYYKNVHNRLSYDGNNAAIRSSVHYSQGYNNAFWNGSQMVYGDGDGQTFIPLSGGIDVVAHELTHAVTDYTAGLIYQNESGAINEAISDIFGTLVEFYANKNPDWEIGEDVYTPGISGDSLRSMSDPAKYGDPDHYSKRYTGTQDNGGVHINSGIINKAAYLISQGGTHYGVSVVGIGRDKLGKIFYRALTQYLTPTSNFSQLRAAAVQSATDLYGSTSQEVASVKQAFDAVGVK	1.05	1.28
T006C: single-substitution thermolysin variant (SEQ ID NO:3 numbering) (protein, listed as Geobacillus caldoproteolyticus) ITGTSCVGVGRGVLGDQKNINTTYSTYYYLQDNTRGNGIFTYDAKYRTTLPGSLWADADNQFFASYDAPAVDAHYYAGVTYDYYKNVHNRLSYDGNNAAIRSSVHYSQGYNNAFWNGSQMVYGDGDGQTFIPLSGGIDVVAHELTHAVTDYTAGLIYQNESGAINEAISDIFGTLVEFYANKNPDWEIGEDVYTPGISGDSLRSMSDPAKYGDPDHYSKRYTGTQDNGGVHINSGIINKAAYLISQGGTHYGVSVVGIGRDKLGKIFYRALTQYLTPTSNFSQLRAAAVQSATDLYGSTSQEVASVKQAFDAVGVK	1.03	1.07
Q128T: single-substitution thermolysin variant (SEQ ID NO:3 numbering) (protein, listed as Geobacillus caldoproteolyticus) ITGTSTVGVGRGVLGDQKNINTTYSTYYYLQDNTRGNGIFTYDAKYRTTLPGSLWADADNQFFASYDAPAVDAHYYAGVTYDYYKNVHNRLSYDGNNAAIRSSVHYSQGYNNAFWNGSQMVYGDGDGTTFIPLSGGIDVVAHELTHAVTDYTAGLIYQNESGAINEAISDIFGTLVEFYANKNPDWEIGEDVYTPGISGDSLRSMSDPAKYGDPDHYSKRYTGTQDNGGVHINSGIINKAAYLISQGGTHYGVSVVGIGRDKLGKIFYRALTQYLTPTSNFSQLRAAAVQSATDLYGSTSQEVASVKQAFDAVGVK	1.18	1.15
S065E: single-substitution thermolysin variant (SEQ ID NO:3 numbering) (protein, listed as Geobacillus caldoproteolyticus) ITGTSTVGVGRGVLGDQKNINTTYSTYYYLQDNTRGNGIFTYDAKYRTTLPGSLWADADNQFFAEYDAPAVDAHYYAGVTYDYYKNVHNRLSYDGNNAAIRSSVHYSQGYNNAFWNGSQMVYGDGDGQTFIPLSGGIDVVAHELTHAVTDYTAGLIYQNESGAINEAISDIFGTLVEFYANKNPDWEIGEDVYTPGISGDSLRSMSDPAKYGDPDHYSKRYTGTQDNGGVHINSGIINKAAYLISQGGTHYGVSVVGIGRDKLGKIFYRALTQYLTPTSNFSQLRAAAVQSATDLYGSTSQEVASVKQAFDAVGVK	1.08	1.34
Y151A: single-substitution thermolysin variant (SEQ ID NO:3 numbering) (protein, listed as Geobacillus caldoproteolyticus) ITGTSTVGVGRGVLGDQKNINTTYSTYYYLQDNTRGNGIFTYDAKYRTTLPGSLWADADNQFFASYDAPAVDAHYYAGVTYDYYKNVHNRLSYDGNNAAIRSSVHYSQGYNNAFWNGSQMVYGDGDGQTFIPLSGGIDVVAHELTHAVTDATAGLIYQNESGAINEAISDIFGTLVEFYANKNPDWEIGEDVYTPGISGDSLRSMSDPAKYGDPDHYSKRYTGTQDNGGVHINSGIINKAAYLISQGGTHYGVSVVGIGRDKLGKIFYRALTQYLTPTSNFSQLRAAAVQSATDLYGSTSQEVASVKQAFDAVGVK	1.15	1.24
Q128C: single-substitution thermolysin variant (SEQ ID NO:3 numbering) (protein, listed as Geobacillus caldoproteolyticus) ITGTSTVGVGRGVLGDQKNINTTYSTYYYLQDNTRGNGIFTYDAKYRTTLPGSLWADADNQFFASYDAPAVDAHYYAGVTYDYYKNVHNRLSYDGNNAAIRSSVHYSQGYNNAFWNGSQMVYGDGDGCTFIPLSGGIDVVAHELTHAVTDYTAGLIYQNESGAINEAISDIFGTLVEFYANKNPDWEIGEDVYTPGISGDSLRSMSDPAKYGDPDHYSKRYTGTQDNGGVHINSGIINKAAYLISQGGTHYGVSVVGIGRDKLGKIFYRALTQYLTPTSNFSQLRAAAVQSATDLYGSTSQEVASVKQAFDAVGVK	1.01	1.05
S065C: single-substitution thermolysin variant (SEQ ID NO:3 numbering) (protein, listed as Geobacillus caldoproteolyticus) ITGTSTVGVGRGVLGDQKNINTTYSTYYYLQDNTRGNGIFTYDAKYRTTLPGSLWADADNQFFACYDAPAVDAHYYAGVTYDYYKNVHNRLSYDGNNAAIRSSVHYSQGYNNAFWNGSQMVYGDGDGQTFIPLSGGIDVVAHELTHAVTDYTAGLIYQNESGAINEAISDIFGTLVEFYANKNPDWEIGEDVYTPGISGDSLRSMSDPAKYGDPDHYSKRYTGTQDNGGVHINSGIINKAAYLISQGGTHYGVSVVGIGRDKLGKIFYRALTQYLTPTSNFSQLRAAAVQSATDLYGSTSQEVASVKQAFDAVGVK	1.05	1.14
Y151C: single-substitution thermolysin variant (SEQ ID NO:3 numbering) (protein, listed as Geobacillus caldoproteolyticus) ITGTSTVGVGRGVLGDQKNINTTYSTYYYLQDNTRGNGIFTYDAKYRTTLPGSLWADADNQFFASYDAPAVDAHYYAGVTYDYYKNVHNRLSYDGNNAAIRSSVHYSQGYNNAFWNGSQMVYGDGDGQTFIPLSGGIDVVAHELTHAVTDCTAGLIYQNESGAINEAISDIFGTLVEFYANKNPDWEIGEDVYTPGISGDSLRSMSDPAKYGDPDHYSKRYTGTQDNGGVHINSGIINKAAYLISQGGTHYGVSVVGIGRDKLGKIFYRALTQYLTPTSNFSQLRAAAVQSATDLYGSTSQEVASVKQAFDAVGVK	1.25	1.09
S065V: single-substitution thermolysin variant (SEQ ID NO:3 numbering) (protein, listed as Geobacillus caldoproteolyticus) ITGTSTVGVGRGVLGDQKNINTTYSTYYYLQDNTRGNGIFTYDAKYRTTLPGSLWADADNQFFAVYDAPAVDAHYYAGVTYDYYKNVHNRLSYDGNNAAIRSSVHYSQGYNNAFWNGSQMVYGDGDGQTFIPLSGGIDVVAHELTHAVTDYTAGLIYQNESGAINEAISDIFGTLVEFYANKNPDWEIGEDVYTPGISGDSLRSMSDPAKYGDPDHYSKRYTGTQDNGGVHINSGIINKAAYLISQGGTHYGVSVVGIGRDKLGKIFYRALTQYLTPTSNFSQLRAAAVQSATDLYGSTSQEVASVKQAFDAVGVK	1.08	1.08
